For 1 substance, filter trap assay, concentration that reduces aggregates to a similar level results are on record in patent publication US20140335016A1.

The assay concerns the target amyloid-β 1-42 fibers (fAβ42) (human) (UniProt P05067). The assay is described as follows: cell-based or functional assay.

Chain of amyloid-β 1-42 fibers (fAβ42) (human) (P05067 672-713 limits assumed): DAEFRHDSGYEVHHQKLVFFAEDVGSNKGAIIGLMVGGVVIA

Substance “M13 filamentous bacteriophage, Construct 2 (wild type M13 isolate, GenBank JX412914.1)” gave a filter trap assay, concentration that reduces aggregates to a similar level of 1.7 nM.
